For orientation: Kd means the constant that tells how readily two partners part at equilibrium. Read a high Kd as weaker binding.

Common to all, as to assay: SPR, antibody captured, C2 as analyte;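 also: biacore SPR at 37 °C, anti-C2 mAbs captured via goat anti-human IgG on CM5 chips, double-referenced sensorgrams fit to a 1:1 kinetic or steady-state model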
A general note: In SPR one partner is held on a chip, and binding of the other changes the refractive index at the surface.

One test concerns the target T1, human C2 L279A (human, UniProt P06681 21-752).
T1 sequence: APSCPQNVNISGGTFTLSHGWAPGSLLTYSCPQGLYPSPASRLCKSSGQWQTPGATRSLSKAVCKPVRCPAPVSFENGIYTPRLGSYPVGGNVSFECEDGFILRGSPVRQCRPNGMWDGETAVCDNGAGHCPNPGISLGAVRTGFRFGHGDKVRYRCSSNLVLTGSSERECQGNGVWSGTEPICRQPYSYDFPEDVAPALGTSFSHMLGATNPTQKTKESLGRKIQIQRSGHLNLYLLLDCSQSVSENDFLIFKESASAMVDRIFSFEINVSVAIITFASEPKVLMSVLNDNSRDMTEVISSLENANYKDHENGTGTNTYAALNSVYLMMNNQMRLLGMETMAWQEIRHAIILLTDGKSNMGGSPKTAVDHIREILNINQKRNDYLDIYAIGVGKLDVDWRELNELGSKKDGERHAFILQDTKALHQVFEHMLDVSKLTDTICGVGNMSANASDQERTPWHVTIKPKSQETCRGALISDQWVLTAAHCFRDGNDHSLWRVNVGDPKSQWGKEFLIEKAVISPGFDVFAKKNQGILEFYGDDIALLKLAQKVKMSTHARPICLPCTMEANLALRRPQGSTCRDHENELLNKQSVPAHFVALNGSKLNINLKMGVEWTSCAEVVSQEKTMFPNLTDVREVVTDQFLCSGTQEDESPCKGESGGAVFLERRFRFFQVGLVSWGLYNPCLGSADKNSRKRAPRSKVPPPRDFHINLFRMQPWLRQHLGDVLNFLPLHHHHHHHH

In another test the target is T2, human C2 N325A (human, UniProt P06681 21-752).
T2 sequence: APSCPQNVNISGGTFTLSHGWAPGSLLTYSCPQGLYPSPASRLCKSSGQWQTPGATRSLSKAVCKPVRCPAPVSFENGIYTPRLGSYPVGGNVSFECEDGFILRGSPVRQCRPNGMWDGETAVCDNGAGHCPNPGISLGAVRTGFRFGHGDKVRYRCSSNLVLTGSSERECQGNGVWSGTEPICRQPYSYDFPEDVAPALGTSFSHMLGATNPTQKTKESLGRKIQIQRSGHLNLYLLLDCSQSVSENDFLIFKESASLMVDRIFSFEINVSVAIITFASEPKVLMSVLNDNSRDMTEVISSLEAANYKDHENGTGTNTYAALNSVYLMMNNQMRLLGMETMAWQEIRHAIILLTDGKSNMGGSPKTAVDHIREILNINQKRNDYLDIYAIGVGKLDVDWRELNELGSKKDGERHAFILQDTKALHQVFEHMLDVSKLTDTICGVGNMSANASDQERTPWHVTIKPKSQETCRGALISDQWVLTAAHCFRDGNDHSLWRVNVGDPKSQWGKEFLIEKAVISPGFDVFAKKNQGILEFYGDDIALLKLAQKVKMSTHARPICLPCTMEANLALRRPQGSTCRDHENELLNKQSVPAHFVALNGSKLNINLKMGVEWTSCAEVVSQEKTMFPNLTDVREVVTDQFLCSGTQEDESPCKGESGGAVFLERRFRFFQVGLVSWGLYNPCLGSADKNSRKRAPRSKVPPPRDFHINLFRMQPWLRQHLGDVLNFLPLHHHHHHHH

For a further test, the target named is T3, human C2 K487A (human, UniProt P06681 21-752).
T3 sequence: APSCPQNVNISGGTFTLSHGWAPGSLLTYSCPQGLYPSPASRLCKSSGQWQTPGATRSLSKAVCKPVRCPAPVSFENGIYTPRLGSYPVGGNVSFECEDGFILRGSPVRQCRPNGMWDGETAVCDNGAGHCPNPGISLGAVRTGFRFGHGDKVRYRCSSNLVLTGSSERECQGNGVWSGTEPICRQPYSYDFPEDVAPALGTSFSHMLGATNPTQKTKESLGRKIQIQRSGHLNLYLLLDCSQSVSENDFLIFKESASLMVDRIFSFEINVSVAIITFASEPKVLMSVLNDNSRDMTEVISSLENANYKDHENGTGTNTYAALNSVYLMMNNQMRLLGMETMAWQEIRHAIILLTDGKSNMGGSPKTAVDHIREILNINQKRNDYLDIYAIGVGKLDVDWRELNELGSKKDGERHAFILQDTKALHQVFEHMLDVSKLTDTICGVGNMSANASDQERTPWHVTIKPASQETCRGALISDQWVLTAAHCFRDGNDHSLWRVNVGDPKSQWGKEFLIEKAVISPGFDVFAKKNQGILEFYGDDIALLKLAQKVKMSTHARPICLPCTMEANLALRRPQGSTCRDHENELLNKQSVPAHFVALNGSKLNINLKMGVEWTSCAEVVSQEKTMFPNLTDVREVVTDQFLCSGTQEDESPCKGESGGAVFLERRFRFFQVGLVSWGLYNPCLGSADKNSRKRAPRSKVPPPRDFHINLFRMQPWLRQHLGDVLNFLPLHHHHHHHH

In the next test the target is T4, human C2 E532A (human, UniProt P06681 21-752).
T4 sequence: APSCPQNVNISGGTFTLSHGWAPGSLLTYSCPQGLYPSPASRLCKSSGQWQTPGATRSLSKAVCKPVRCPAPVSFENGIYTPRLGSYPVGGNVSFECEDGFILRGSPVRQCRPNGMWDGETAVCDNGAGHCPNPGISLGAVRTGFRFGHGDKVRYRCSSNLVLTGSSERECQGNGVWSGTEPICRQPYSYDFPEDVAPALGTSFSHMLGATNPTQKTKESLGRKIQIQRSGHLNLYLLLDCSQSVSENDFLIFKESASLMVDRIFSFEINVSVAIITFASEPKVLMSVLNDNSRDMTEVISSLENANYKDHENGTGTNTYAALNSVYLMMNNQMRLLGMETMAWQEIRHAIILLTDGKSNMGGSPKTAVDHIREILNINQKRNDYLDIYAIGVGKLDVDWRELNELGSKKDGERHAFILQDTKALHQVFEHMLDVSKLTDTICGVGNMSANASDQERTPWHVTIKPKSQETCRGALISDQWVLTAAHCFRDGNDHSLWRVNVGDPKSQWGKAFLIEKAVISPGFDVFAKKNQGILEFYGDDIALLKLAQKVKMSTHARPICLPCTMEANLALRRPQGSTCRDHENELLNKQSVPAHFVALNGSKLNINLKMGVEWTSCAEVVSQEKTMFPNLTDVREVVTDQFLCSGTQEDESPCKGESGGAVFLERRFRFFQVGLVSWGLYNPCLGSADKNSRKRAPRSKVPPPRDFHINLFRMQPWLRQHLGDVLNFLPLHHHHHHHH

B1: RF16-226 (antibody, human IgG4 S228P, lambda)
heavy: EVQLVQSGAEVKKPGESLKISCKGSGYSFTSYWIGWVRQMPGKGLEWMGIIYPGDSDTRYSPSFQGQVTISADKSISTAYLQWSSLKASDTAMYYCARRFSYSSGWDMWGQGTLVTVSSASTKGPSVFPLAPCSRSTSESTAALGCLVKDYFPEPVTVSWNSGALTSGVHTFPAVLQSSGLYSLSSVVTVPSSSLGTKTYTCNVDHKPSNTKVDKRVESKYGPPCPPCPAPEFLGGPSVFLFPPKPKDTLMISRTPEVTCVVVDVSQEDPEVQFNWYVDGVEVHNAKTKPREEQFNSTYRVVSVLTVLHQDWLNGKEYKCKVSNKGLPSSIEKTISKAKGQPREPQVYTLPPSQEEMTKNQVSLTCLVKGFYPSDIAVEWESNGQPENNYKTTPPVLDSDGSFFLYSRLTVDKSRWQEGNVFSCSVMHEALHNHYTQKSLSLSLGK
light: SYELTQPPSVSVSPGQTARITCSGDALTSKYVAWYQQKSGLAPLLVIYEDTRRPSGIPAKFSGSSSGSVATLTISGAHGDDEADYYCYSTDASGHQRVFGGGTKLTVLSQPKAAPSVTLFPPSSEELQANKATLVCLISDFYPGAVTVAWKADGSPVKAGVETTKPSKQSNNKYAASSYLSLTPEQWKSHRSYSCQVTHEGSTVEKTVAPTECS
notes: pH-dependent anti-C2 antibody from a phage display library; also called WT
For B1, the dissociation constant (Kd) was determined as 54.4 nM in the test with human C2 L279A, 51.3 nM in the test with human C2 N325A, 93 nM with human C2 K487A and 17.2 nM with human C2 E532A.

Values taken from patent US20220332804A1 (CSL INNOVATION, published 2022).
